This is an account of results in patent publication US20250375530A1, “ROR1/EGFR BI-SPECIFIC ANTIGEN BINDING MOLECULES” (ALMAC DISCOVERY LIMITED, priority 2022, published 2025).

The labels stand for the following.
B1: P3A1 G1: humanised version of the ROR1 binding VNAR P3A1, SEQ ID NO: 114 (protein)
chain: TRVDQTPSSLSASVGDRVTITCVLTDTSYGLYSTYWYRKNPGSSNKEQISISGRYSESVNKGTKSFTLTISSLQPEDSATYYCRAREARHPWLRQWYDGAGTKVEIKQASGAHHHHHHGAEFEQKLISEEDL
B2: P3A1 G1 NAG8: P3A1 G1 loop variant VNAR, SEQ ID NO: 81 (protein)
chain: TRVDQSPSSLSASVGDRVTITCVLTGTKYGLYATYWYRKNPGSPNKDRMIIGGRYSESVNNGTKSFTLTISSLQPEDSATYYCRAREARHPWLRQWYDGAGTKVEIKQACKAHHHHHHGAEFEQKLISEEDLG
B3: P3A1 G1 AE3: P3A1 G1 loop variant VNAR, SEQ ID NO: 77 (protein)
chain: TRVDQSPSSLSASVGDRVTITCVLTGTRYGLYSTYWYRKNPGSSDEERISISGRYSESVNKGTKSFTLTISSLQPEDSATYYCRAREARHPWLRQWYDGAGTKVEIKQACKAHHHHHHG
B4: P3A1 G1 NAC6: P3A1 G1 loop variant VNAR, SEQ ID NO: 79 (protein)
chain: B3 chain with G26D, G30A, S44T, S52G, T63S

Substitutions are numbered along the chain they refer to.

The series can be described thus: Analytical SEC of P3A1 loop variants (Superdex 75 increase 10/300 GL, PBS pH 7.4). It counts as physicochemical. The method, then:
Chromatography was carried out in PBS pH 7.4.
In the case of B1, the “% monomer by SEC” value amounted to 100% and the “SEC elution volume” value was found to be 15.47 mL.
Taken in the same sequence, the figures for B2 were 100% and 14.8 mL.
Consider B3, for which the “% monomer by SEC” value is listed as 100% and the “SEC elution volume” value was found to be 17.3 mL.
Taken in the same sequence, the figures for B4 were 100% and 17.3 mL.
